In series [1] the target is T1, recombinant His-tagged Can f2 (dog (Canis familiaris), UniProt O18874 19-180).
T1 construct: also called Can f2-His; recombinant Can f2; not shown: His tag
T1 sequence (looked up): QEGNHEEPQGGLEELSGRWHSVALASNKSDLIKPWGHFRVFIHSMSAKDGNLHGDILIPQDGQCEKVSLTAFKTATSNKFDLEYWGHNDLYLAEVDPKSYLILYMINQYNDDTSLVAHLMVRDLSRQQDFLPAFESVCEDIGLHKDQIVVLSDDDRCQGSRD
Description: ELISA, antigen coated. The procedure: (§1) 2 microgram per milliliter (μg/mL) target antigen is coated in a 96-well plate and ELISA assay is performed after incubation with candidate VHHs. The binding EC50 of each clone is calculated using Prism GraphPad. The positive control antibody is involved as an internal control.
(§2) Isolated VHH clones were further validated by performing an ELISA assay as described in Example 1. Metrics of thermostability including melting temperature (Tₘ), onset temperature (Tₒₙₛₑₜ), and temperature of aggregation (Tagg), were also tested with increasing temperature in the range of 20° C.-95° C. at the speed of 1° C./min. The individual binding curves are shown for each candidate in FIGS. 7B-7P.
On the technique in general: An ELISA detects its analyte on a solid surface through an enzyme-linked reagent.

Series [2] is described as follows: Thermostability (Tm, Tonset, Tagg) by Nanotemper DSF. The note with it: for Tm: single melting point; for Tm1: first melting point; for Tm2: second melting point; for Tm3: third melting point. On the set-up: key to Tm2 / Tagg / Tm1 / Tm / Tm3 / Tonset / Tonset ø (mean) / Tagg ø (mean): temperatures in °C. The series is classed as physicochemical. The procedure:
as §2, with “(Tm),” for “(Tₘ),”, “(Tonset),” for “(Tₒₙₛₑₜ),”, “C./min. These measurements were performed using a Nanotemper DSF. When applicable, Tm1 refers to the first melting point observed, Tm2 refers to the second melting point observed, etc., Sequence information for the VHH clones and the binding assay results are summarized in Table 3.” for “C./min.”, “3B-3I.” for “7B-7P.”
Isolated VHH clones were further validated by performing an ELISA assay as described in Example 1. Metrics of thermostability including melting temperature (Tm), onset temperature (Tonset), and temperature of aggregation (Tagg), were also tested with increasing temperature in the range of 20° C.-95° C. at the speed of 1° C./min. The individual binding curves are shown for each candidate in FIGS. 5B-5H.
Isolated VHH clones were further validated by performing an ELISA assay as described in Example 1. Metrics of thermostability including melting temperature (Tm), onset temperature (Tonset), and temperature of aggregation (Tagg), were also tested with increasing temperature in the range of 20° C.-95° C. at the speed of 1° C./min. The individual binding curves are shown for each candidate in FIGS. 7B-7P.
The detailed thermostability graphs used to determine the Tm, Tonset, and Tagg are illustrated in FIGS. 19A-19I and raw data is summarized in Table 23. Any subsequent melting points observed (Tm1, Tm2, Tm3, etc.) are separated by commas.

For series [3], the target named is T2, recombinant His-tagged Der p1 (dust mite, UniProt P08176 99-320, limits assumed).
T2 construct: Recombinant His-tagged protein made by the applicant; also called Der p1-His; Der pl; not shown: His tag
T2 sequence (looked up): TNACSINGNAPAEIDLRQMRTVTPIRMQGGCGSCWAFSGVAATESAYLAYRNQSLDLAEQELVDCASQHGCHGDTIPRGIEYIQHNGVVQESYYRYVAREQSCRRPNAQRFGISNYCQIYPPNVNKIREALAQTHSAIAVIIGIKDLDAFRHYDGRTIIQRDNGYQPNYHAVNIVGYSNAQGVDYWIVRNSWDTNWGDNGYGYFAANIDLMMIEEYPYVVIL
Description: ELISA, antigen coated on plate. The procedure: as §1
Isolated VHH clones were further validated by performing an ELISA assay as described in Example 1. The individual binding curves are shown for each candidate in FIGS. 9A-9K.

Setting [4] is: anti-Can f2 VHH, 20° C.-95° C. at 1° C./min.
Setting [5] is: anti-Can f2 VHH, in °C (unit assumed).
Setting [6] is: Average of two replicates, anti-Fel d1 VHH.

For orientation: EC50 means the concentration at which the effect is half-maximal.

B1: SDAB22118-3-B02 (VHH)
VHH: AVQLVDSGGGLVQPGGSLRLSCAASGRTFSYYAMGWFRQALGKEREFVAASSRTGRVTNYADSVKGRFTISRDNAKNTVYLQMNSLKPEDTAIYYCAADDRFYGGDNPAFYNSWGQGTQVTVSS
notes: anti-Can f2 alpaca VHH; prokaryotic expression
Regarding B1, the EC50 in series [1] stood at 0.00759 µg/mL.

B2: SDAB22118-189-192-1-E08 (VHH)
VHH: AVQLVESGGGLVQPGGSLRLSCVASGSSSRNYAMGWYRQAPGNEREFVAVITSRGYTHYANSVSGRFTISRDHAKDTAYLQMNSLKPEDTAVYYCNTQAGLLPFMTVYDWGTGTQVTVSS
notes: as for B1
On to B2, for which, in series [1], the EC50 amounted to 0.00411 µg/mL.

B3: SDAB22118-3-F08 (VHH)
VHH: QVQLVESGGGLVQPGESLRLSCAASGSIFSIYRMGWYRQAPGEQREHVATVTSGGGTGYADSVKGRFTIYRDNAKNTVYLQMNSLKPEDTAVYSCYAIPKSWSRTSEYSWGQGTQVTVSS
notes: as for B1
Consider B3, for which the EC50 in series [1] came to 0.0595 µg/mL.

B4: SDAB22118-1-B11 (VHH)
VHH: AVQLVESGGGLVQPGGSLRLSCAASGFTFSNYYMSWYRQAPGKEREWVAFITSTGSSTNYANSVKGRFTASRDNAKNTVYLQMNSLKPEDTAVYYCKTRLWGNDYWGKGTLVTVSS
notes: as for B1
On to B4, for which the concentration giving a half-maximal response (EC50) in series [1] amounted to 0.164 µg/mL. Further, the Tagg in series [2] (setting [4]) is 44.54. In series [2] (setting [5]), the Tm is recorded as 55.17.

B5: SDAB22129-55-35-46-49-1-G09 (VHH)
VHH: QVKLEESGGGAVQPGGSLRLSCTASGQTFSNYIISWFRQAPGKEREFVVGISKSGGRTYYADSAKGRFTISRDNAKNTVYLQMSSLKPEDTAVYYCAADGLVLTAAAAEYDYWGQGTQVTVSS
notes: Expressed from a prokaryotic vector
With B5, in series [3], the EC50 was found to be 0.154 µg/mL.

B6: SDAB22118-189-192-1-E09 (VHH)
VHH: EVQLVESGGGLVQPGGSLRLSCAASGTIFLINRMGWYRQAPGKQRELVATSFTSGNSTMYADSVKGRFTISRDNAKKTVYLQMNSLKPEDTAVYYCKARISRRYGNWDDYWGQGTQVTVSS
notes: as for B1
With B6, in series [1], the 50% effective concentration (EC50) was found to be 0.0571 µg/mL.

B7: SDAB22129-55-35-46-49-1-A04 (VHH)
VHH: QLQLVESGGGLVQPGGSLRLSCAASGRVYNSWTMAWFRQAPGKEREFVGAFSLLDSGTRYADSLKDRVAISRDDAANTQWLQLSALKPEDTAVYYCAAKSGTIRATSEGQYNYWGQGIQVTVSS
notes: as for B5
Turning to B7, the concentration giving a half-maximal response (EC50) in series [3] turned out to be 3.41 µg/mL.

B8: SDAB22118-189-192-1-C10 (VHH)
VHH: EVQLVESGGGLVQAGGSLRLSCAASGRTFSEYIMGWFRQAPGKERVFVSTISKSGAITNYADSVQGRFTISRDNAKNTVYLQMNSLKPEDSAVYYCAAGPLLSPAGRQYDYWGQGTQVTVSS
notes: as for B1
On to B8, for which the EC50 in series [1] was determined as 0.0217 µg/mL.

B9: SDAB22129-55-35-46-49-1-A03 (VHH)
VHH: QVQLVESGGGLVQAGGSLRLSCAVSGRTVSRNVMGWFRQAPGKEREFVAGIGFSGGSTYYADSVKGRFTISRDNAKNTVYLEMNRLQPEDTAVYYCAAPSLPLLTSDLHDYDYWGQGTQVTVSS
notes: as for B5
Consider B9, for which the EC50 in series [3] came to 0.0291 µg/mL.

B10: SDAB22118-189-192-1-E10 (VHH)
VHH: AVQLVDSGGGLVQTGGSLRLSCAASGTIFSINRMAWYRQAPGKQRELVASIFFSGGITHYADFVKGRFTISRDNAKNTMYLQMNSLKPEDTAVYYCKGVIAPNYRRTSNFQDYWGQGTQVTVSS
notes: as for B1
Take B10: the EC50 in series [1] worked out at 0.0427 µg/mL.

B11: DAB22110-1-1-C3 (protein)
VHH: QLQLVESGGGLVQPGGSLRLSCEASGFTFKYYTMSWYRQAPGKERELVATITNGDRTNYADSVKGRFTISRDNAKNTLYLQMNSLKPYDTAVYYCNRHLPLLQIWGQGTQVTVSS
As for B11, in series [2] (setting [6]), the “Tagg ø (mean)” value was determined as 58.93 and the “Tonset ø (mean)” value turned out to be 58.06. The “Tm ø (mean), first melting point (Tm1)” value in series [2] (Average of two replicates, anti-Fel d1 VHH, in °C (unit assumed)) was determined as 66.50. For the same molecule, in series [2] (Replicate 1), the Tagg is on record as 59.02 and the Tonset was determined as 58.17. Also, the “Tm, first melting point (Tm1)” value in series [2] (Replicate 1, in °C (unit assumed)) was 66.50. In series [2] (Replicate 2), this molecule returned a Tagg of 58.85 and a Tonset of 57.94. The “Tm, first melting point (Tm1)” value in series [2] (Replicate 2, in °C (unit assumed)) worked out at 66.51.

B12: SDAB22118-189-192-1-C05 (VHH)
VHH: QVQLVESGGGGVQAGGSLRLSCVASQSHFGYNVMGWYRQAPGRQRELVATIISSGGTNYADSVKGRFTISRDNAKNTVHLSMDSLNVEDTAVYFCYAKGVWLGREYWGQGTQVTVSS
notes: as for B1
Turning to B12, the EC50 in series [1] amounted to 0.0325 µg/mL.

B13: SDAB22118-2-G01 (VHH)
VHH: AVQLVDSGGGLVQAGDSLRLSCVASGRTFSSYVMGWFRQAPGKERLIVATISKSGSLTHYADSVEGRFTISRDNAKNTVYLQMNSLEPEDTAVYYCTPVSDLTGRRLGSYWGQGTQVTVSS
notes: as for B1
B13: in series [1], the concentration for a half-maximal effect (EC50) amounted to 0.0736 µg/mL. In series [2] (setting [4]), this molecule displayed a Tagg of 38.93. For the same molecule, the Tm in series [2] (setting [5]) turned out to be 43.71.

B14: SDAB22118-3-G05 (VHH)
VHH: AVQLVESGGGLVQAGGSLRLSCAASGRTFNNSVMGWFRQAPGKEREFVAAISRSGAFAHYAESVEGRFTISRDNAKNTVYLQMNSLKPEDTAVYYCAAGAILLPTERRYDYWGQGTQVTVSS
notes: as for B1
With B14, the EC50 in series [1] came to 0.149 µg/mL.

B15: SDAB22118-1-D05 (VHH)
VHH: QVQLVESGGGLVQAGGSLGLSCAASGRTFNNYVMGWFRQAPGKEREFVAAISRSGSFTHYAEAVQGRFTISRDNAKITVYLQMNSLKPEDTAVYYCAAGAILMPTERTYDYWGQGTQVTVSS
notes: as for B1
On to B15, for which the EC50 in series [1] worked out at 0.0762 µg/mL. The same molecule yielded a Tagg in series [2] (setting [4]) of 39.54. In series [2] (setting [5]), the Tm1 came out at 48.35, the Tm2 stood at 58.58 and the Tm3 was 64.58.

B16: SDAB22118-1-F04 (VHH)
VHH: QVQLVESGGGLVQPGGSLRLSCAYSGFTLDNNVIGWFRQAPGKEREFVAAISRSGAFTHYTESVQGRFTISRDNAKNTVYLQMNSLKPEDTAVYYCAAGAILLPTERRYDYWGQGTQVTVSS
notes: as for B1
In the case of B16, the EC50 in series [1] worked out at 0.0639 µg/mL. In series [2] (setting [4]), this molecule returned a Tagg of 48.08. Moreover, the Tm in series [2] (setting [5]) was 58.63.

B17: SDAB22129-55-35-46-49-1-D04 (VHH)
VHH: QLQLVESGGGLVQPGGSLRLSCVISGGTFHPYPIGWFREAPGKEREGVLCINSGGQSEISANSAHDPKYADSVKGRFTISRDNAANTVYLQMNNLEPGDTAVYYCAAPREIYVDPYCPTYAYEYWGQGTQVTVSA
With B17, the EC50 in series [3] came to 0.0621 µg/mL.

B18: SDAB22118-3-D01 (VHH)
VHH: QVQLVESGGGLVQAGDSLRLSCAASGRSFSNYVMNWFRQAPGKEREFVAAISRSGRSTFYADSVKGRFTISRDNPKATVYLQMNSLVIEDTAVYFCAAASDITSMRSLAAITSWGQGTQVIVSS
notes: as for B1
In the case of B18, in series [1], the 50% effective concentration (EC50) was 0.429 µg/mL.

B19: SDAB22118-1-D08 (VHH)
VHH: EVQLVESGGGLVQPGGSLRLSCVVSGSIFSDNAMGWYRQAPGKQREMVAIISSVGTTNNVDSVNGRFTISRDNAKNTVYLQMNSLKPEDTAVYYCKDFSAPRYWGQGTQVTVSS
notes: as for B1
As for B19, the concentration giving a half-maximal response (EC50) in series [1] is 0.0486 µg/mL. The same molecule yielded a Tagg in series [2] (setting [4]) of 40.82. Also, in series [2] (setting [5]), the Tm1 is 38.89, the Tm2 stood at 43.62 and the Tm3 amounted to 54.69.

B20: SDAB22118-189-192-1-H03 (VHH)
VHH: EVQLVESGGGLVQARGSLRLSCAASGRTFNNYAMGWFRQAPGKEREFVAAIASNTGTTYYAGSVKGRFAISRDNAKNTVDLHMNSLKPEDTAVYYCALGPLRLGWWYDSRPYDYWGQGTQVTVSS
notes: as for B1
Take B20: the EC50 in series [1] stood at 0.0575 µg/mL.

The record behind these values is patent publication US20240352105A1, “COMPOSITIONS AND METHODS FOR NEUTRALIZING ANTIGENS” (PACAGEN, INC, priority 2023, published 2024).
